Measured values taken from IntAct's records for PubMed 16477026.

B1: Effector protein HopAB2 (Pseudomonas syringae pv. tomato (strain DC3000)), Q8RSY1 (parent)
chain: MAGINRAGPSGAYFVGHTDPEPVSGQAHGSGSGASSSNSPQVQPRPSNTPPSNAPAPPPTGRERLSRSTALSRQTREWLEQGMPTAEDASVRRRPQVTADAATPRAEARRTPEATADASAPRRGAVAHANSIVQQLVSEGADISHTRNMLRNAMNGDAVAFSRVEQNIFRQHFPNMPMHGISRDSELAIELRGALRRAVHQQAASAPVRSPTPTPASPAASSSGSSQRSLFGRFARLMAPNQGRSSNTAASQTPVDRSPPRVNQRPIRVDRAAMRNRGNDEADAALRGLVQQGVNLEHLRTALERHVMQRLPIPLDIGSALQNVGINPSIDLGESLVQHPLLNLNVALNRMLGLRPSAERAPRPAVPVAPATASRRPDGTRATRLRVMPEREDYENNVAYGVRLLNLNPGVGVRQAVAAFVTDRAERPAVVANIRAALDPIASQFSQLRTISKADAESEELGFKDAADHHTDDVTHCLFGGELSLSNPDQQVIGLAGNPTDTSQPYSQEGNKDLAFMDMKKLAQFLAGKPEHPMTRETLNAENIAKYAFRIVP

Variants of: B1
Details: with rs27a_sollc UBI3, P62980

Row | Variant | effect of a mutation on the interaction
1 | K512R;K529R | decreasing interaction strength
